In patent US20250313645A1 (COMPASS THERAPEUTICS, published 2025):

Tests used:
[1] = target: T1, Fc-, mouse IgG2a-, or His-tagged human CD137 (human, UniProt Q07011 24-186); assay: BLI (Octet HTX), tagged CD137 on biosensor, Fab 0-500 nM in solution, global 1:1 fit, apparent KD; lower end of the printed range 50-70 nM
T1 construct: Sources were ACRO Biosystems, Sino Biological and internal; not shown: Fc, mouse IgG2a or His tag
Method: (§1) The anti-CD137 antibodies were further tested for their binding to CD137 from multiple species. Specifically, mAb1, mAb8 and mAb10 were analyzed for binding to human, mouse, cynomolgus and canine CD137. Kinetic experiments were performed on OCTET HTX (ForteBio) in kinetics buffer (1×PBS, pH 7.4, 0.1 mg/ml BSA, and 0.002% Tween 20). Fc-, mouse IgG2a-, or His-tagged CD137 (human, mouse, cyno or canine) were loaded for 5 minutes on pre-hydrated biosensors, AHC, AMC or NTA respectively. The sensors were then dipped into Fabs (0, 5.12, 12.8, 32, 80, 200 and 500 nM) for 5 minutes of association, following by 15 minutes of dissociation. Results were analyzed with ForteBio Data Analysis 9.0 and fit globally to a 1:1 binding model to determine the apparent KD. KD for human and mouse CD137 binding were confirmed by using antigens from different sources (ACRO Biosystems, Sino Biological and internal).

[2] = target: T1, Fc-, mouse IgG2a-, or His-tagged human …; assay: BLI (Octet HTX), tagged CD137 on biosensor, Fab 0-500 nM in solution, global 1:1 fit, apparent KD; upper end of the printed range 50-70 nM
Method: as §1

Kd [1]: ≥ 50 nM
Kd [2]: ≤ 70 nM
B1: mAb1 Fab (Fab, V domains shown)
VH: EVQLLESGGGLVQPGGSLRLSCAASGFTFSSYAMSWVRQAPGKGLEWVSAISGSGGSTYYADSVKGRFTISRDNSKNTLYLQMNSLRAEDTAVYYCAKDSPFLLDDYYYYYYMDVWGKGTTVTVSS
VL: DIQMTQSPSSVSASVGDRVTITCRASQGISSWLAWYQQKPGKAPKLLIYAASSLQSGVPSRFSGSGSGTDFTLTISSLQPEDFATYYCQQGHLFPITFGGGTKVEIK
